In US20180258175A1 (ABLEXIS, published 2018):

Key:
[1] = biological target: T1, human CD115 extracellular domain (Sino Biological 10161-H08H) (human, UniProt P07333 20-517); assay: SPR ProteOn, supernatant mAb captured on anti-mouse IgG, Hu CD115 analyte
T1 construct: extracellular domain; bought recombinant protein; also called huCD115; hu-CD115

[2] = biological target: T1, human CD115 extracellular domain (Sino …); assay: competition ELISA, competitor TMR 20A;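 also: epitope binning by ELISA, anti-huCD115 hybridoma supernatant antibodies tested for binding to huCD115 with the competitor antibody present, loss of binding placing them in the competitor's bin; low signal means same epitope bin as the mouse competitor antibody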
[3] = biological target: T1, human CD115 extracellular domain (Sino …); assay: competition ELISA, competitor TMR 24A;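 also: clonal anti-huCD115 hybridoma supernatant antibodies bound with a competitor mouse antibody present, and failure to bind puts a clone in that competitor's epitope bin; low signal means same epitope bin as the mouse competitor antibody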
[4] = biological target: T1, human CD115 extracellular domain (Sino …); assay: competition ELISA, competitor TMR 35A;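 also: clonal hybridoma supernatant antibodies added to wells after the competitor mouse antibody, lost binding signal puts an antibody in that competitor's epitope bin; low signal means same epitope bin as the mouse competitor antibody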
[5] = biological target: T1, human CD115 extracellular domain (Sino …); assay: competition ELISA, competitor TMR 44B;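 also: binding of antibodies from single-clone hybridoma supernatants to huCD115 measured with the competitor antibody present, a drop in signal meaning both share an epitope bin; low signal means same epitope bin as the mouse competitor antibody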
[6] = biological target: T1, human CD115 extracellular domain (Sino …); assay: competition ELISA, competitor TMR 95A
[7] = biological target: T1, human CD115 extracellular domain (Sino …); assay: competition ELISA, competitor TMR 100A
[8] = biological target: T1, human CD115 extracellular domain (Sino …); assay: ELISA, supernatant on huCD115
[9] = biological target: T2, native CD115 on OCI-AML5 cells (UniProt P07333 20-972, limits assumed); assay: FACS, supernatant on OCI-AML5 cells
T2 construct: whole, on cells; cell line endogenous receptor; also called CD115 expressed on OCI-AML5 cells; CD115 expressing AML5 cells

Row | Binder | Kd [1] | koff [1] | kon [1] | signal vs NO COMP=100 [2] | signal vs NO COMP=100 [3] | signal vs NO COMP=100 [4] | signal vs NO COMP=100 [5] | signal vs NO COMP=100 [6] | signal vs NO COMP=100 [7] | binding result [8] | binding result [9]
1 | 487 (Table 4, bin 3 block) (antibody, V domains shown, not tied) VH: QVQLQESGPGLVKPSETLSLTCTVSGGSISSYYWSWIRQPAGKGLEWIGHIFSSGSTNYNPSLKSRVTMSVDTSKSQFSLKLSSVTAADTAVYLCARGGVTWFDPWGQGTLVTVSS VL: not shown | – | – | – | 97% | 86% | 6% | 94% | 84% | 103% | – | –
2 | CCL-216A (antibody, V domains shown, AlivaMab chimeric IgG, human lambda LC) VH: QVQLQESGPGLVKPSETLSLTCTVSGDSISNYYWSWIRQPAGKGLEWIGRIYTSGSTNNNPSLKSRVTMSVDTSKNQFSLKLSSVTAADTAVYYCARERINWFDPWGQGTLVTVSS VL: not shown | – | – | – | – | – | – | – | – | – | binds | binds
3 | CCK-465A (antibody, V domains shown, AlivaMab chimeric IgG, human kappa LC) VH: QVQLQESGPGLVKPSETLSLSCTVSGGSISSYYWSWIRQPAGKGLEWIGRIYTSGSTNYNPSLKSRVTMSVDTSKNQFSLKLSSVTAADTAVYYCARDRSFYGMDVWGQGTTVTVSS VL: DIQMTQSPSSLSASVGDRVTITCRASQGFSNYLAWYQQKPGKVPKLLIYAASTLQSGVPSRFSGSGSGTDFTLTISSLQPEDVATYYCQKYNSAPLTFGGGTKVEIK | 1.41 nM | 0.000749 s⁻¹ | 531000 M⁻¹ s⁻¹ | 78% | 81% | 88% | 8% | 41% | 92% | – | –
4 | CCK-418A (antibody, V domains shown, AlivaMab chimeric IgG, human kappa LC) VH: QVQLQESGPGLVKPSETLSLTCTVSGGSISSYYWSWIRQPAGKGLEWIGRIYTSGTTNFNPSLKSRVTMSVDTSKNQFSLKLSSVTAADTAVYYCATLSGTNWGSPFDYWGQGTLVTVSS VL: not shown | 0.158 nM | 2.11e-05 s⁻¹ | 133000 M⁻¹ s⁻¹ | 89% | 35% | 82% | 3% | 10% | 106% | – | –
5 | CCL-337A (antibody, V domains shown, AlivaMab chimeric IgG, human lambda LC) VH: QVQLQESGPGLVKPSETLSLTCTVSGGSINSYYWSWIRQPAGKGLEWIGRIYTSGNTNYNPSLKSRVTMSVDTSKNLFSLKLSSVTAADTAVYYCARERLTGYFDYWAQGTLVTVSS VL: not shown | – | – | – | – | – | – | – | – | – | binds | binds
6 | CCL-211A (antibody, V domains shown, AlivaMab chimeric IgG, human lambda LC) VH: QVQLQESGPGLVKPSETLSLTCTVSGGSISSYYWSWIRQPAGKGLEWIGRIYISGTTNYNPSLMSRVTMSVDTSKNQFSLKLTSVTAADTAVYYCARERLVRAFDIWGQGTMVTVSS VL: not shown | – | – | – | – | – | – | – | – | – | binds | binds
7 | CCL-346A (antibody, V domains shown, AlivaMab chimeric IgG, human lambda LC) VH: QVQLQESGPGLVKPSETLSLTCTVSGGSISSYYWSWIRQPAGKGLEWIGRFYTSGSTSCNPSLKSRVTMSVDTSKNQFSLKLSSVTAADTAVYYCAREGILGYFDYWGQGTLVTVSS VL: not shown | – | – | – | – | – | – | – | – | – | binds | binds
8 | CCL-205A (antibody, V domains shown, AlivaMab chimeric IgG, human lambda LC) VH: QVQLQESGPGLVKPSETLSLTCTVSGGSISSYYWSWIRQPAGKGLEWIGRIYISGSIYNNPSLKSRVTMSVDTSKNQFSLKLSSVTAADTAVYYCARDRVGMTFDIWGQGTMVTVSS VL: not shown | – | – | – | – | – | – | – | – | – | binds | binds
9 | CCK-539A (antibody, V domains shown, AlivaMab chimeric IgG, human kappa LC) VH: QVQLVESGGGVVQPGRSLRLSCAASGFTFSTFAMHWVRQAPGKGLEWVAVISYDGSNKYYVDSVKGRFTISRDNSKNTLYLQMNSLRAEDTAMYYCARDGTGDALDIWGQGTMVTVSS VL: not shown | 2.7 nM | 8.5e-05 s⁻¹ | 32000 M⁻¹ s⁻¹ | – | – | – | – | – | – | – | –
10 | CCK-519A (antibody, V domains shown, AlivaMab chimeric IgG, human kappa LC) VH: not shown VL: DIVMTQTPLSLPVTPGEPASISCRSSQSLLDSDDGNTYLDWYLQKPGQSPQLLIYTLSYRASGVPDRFSGSGSGTDFTLKISRVEAEDVGVYYCMQRIEFPITFGQGTRLEIK | 0.86 nM | 7.71e-05 s⁻¹ | 90000 M⁻¹ s⁻¹ | 6% | 110% | 110% | 12% | 36% | 118% | – | –
11 | CCK-533A (antibody, V domains shown, AlivaMab chimeric IgG, human kappa LC) VH: QVQLVQSGAEVKKPGASVKVSCKASGYTFTGYYMHWVRQAPGQGLEWMGRINPNSGGTYYAQKFQGRVTMTRDTSISTAYVELSRLRSDDTAVYYCARKNPWGHFDYWGQGTLVTVSS VL: DIVMTQTPLSLPVTPGEPASISCRSSQSLLDSDDGNTYLDWYLQKPGQSPQLLIYTLSYRASGVPDRFSGSGSGTDFTLKISRVEAEDVGVYYCMQRIEFPYTFGQGTKLEIK | 0.317 nM | 3.92e-05 s⁻¹ | 124000 M⁻¹ s⁻¹ | – | – | – | – | – | – | – | –
12 | CCK-456A (antibody, V domains shown, AlivaMab chimeric IgG, human kappa LC) VH: EVHLVESGGGLVKPGGSLRLSCAASGFTFSSYSMNWFRQAPGKGLEWVSSISSSSSYIYYADSVKGRFTISRDNAKNSLSLQMNSLRAEDTAVYYCARAGAVAALYNWFDPWGQGTLVTVSS VL: not shown | 1.97 nM | 5.3e-05 s⁻¹ | 27000 M⁻¹ s⁻¹ | 73% | 42% | 64% | 27% | 27% | 96% | – | –

Second part, the binder after the results:

Row | Kd [1] | koff [1] | kon [1] | signal vs NO COMP=100 [2] | signal vs NO COMP=100 [3] | signal vs NO COMP=100 [4] | signal vs NO COMP=100 [5] | signal vs NO COMP=100 [6] | signal vs NO COMP=100 [7] | binding result [8] | binding result [9] | Binder
13 | 0.95 nM | 6.54e-05 s⁻¹ | 69000 M⁻¹ s⁻¹ | – | – | – | – | – | – | – | – | CCK-407A (antibody, V domains shown, AlivaMab chimeric IgG, human kappa LC) VH: QVQLQESGPGLVKPSETLSLTCTVSGGSISSYYWSWIRQPAGKGLEWIGHIFSSGSTNYNPSLKSRVTMSVDTSKSQFSLKLSSVTAADTAVYLCARGGVTWFDPWGQGTLVTVSS VL: not shown
14 | – | – | – | – | – | – | – | – | – | binds | binds | CCL-328A (antibody, V domains shown, AlivaMab chimeric IgG, human lambda LC) VH: QVQLQESGPGLVKPSETLSLTCTVSGGSISSYYWSWIRQPAGKGLEWIGRIYTSGSTNYNPSLKSRVTMSIDTSKNQFSLKLSSVTAADTAVYYCARSRLGIFDYWGQGTLVTVSS VL: not shown
15 | 1.4 nM | 0.000374 s⁻¹ | 267000 M⁻¹ s⁻¹ | 34% | 109% | 111% | 15% | 42% | 93% | – | – | CCK-541A (antibody, V domains shown, AlivaMab chimeric IgG, human kappa LC) VH: QVQLQESGPGLVKPSETLSLTCTVSGASISTYFWSWLRQPPGKGLEWIGYIFYSGSINYNPSLKSRVTISVDTSKNQFSLELSSVTAADTAVYYCARDRTFYGMDVWGQGTTVTVSS VL: EIVLTQSPGTLSLPPGERATLSCRASQNVSSTYLAWYHQKPGQAPRLLIYGASSRATGIPDRFSGSGSGTDFTLTISRLEPEDFAVYYCQQYGSSPRTFGQGTKVEIK
16 | – | – | – | 53% | 85% | 104% | 24% | 61% | 95% | – | – | CCK-468A (antibody, V domains shown, AlivaMab chimeric IgG, human kappa LC) VH: EVQLVESGGGLVQPGRSLRLSCTASGFTFGDYAMTWFRQAPGKGLEWVGFIRSKAYGGTTEYAASVKGRFTISRDDSKSIAYLQMNSLKTEDTAVYYCTREGSFGALDIWGQGTMVTVSS VL: not shown
17 | – | – | – | 59% | 111% | 89% | 2% | 1% | 100% | – | – | 549 (Table 4, bin 1D block) (antibody, V domains shown, not tied) VH: QVQFVESGGGVVQPGRSLRLSCAASGFTLSSYGMHWVRQAPGKGLEWVAVIWYDGSNEYYADSVKGRFTISRDNSKNTLYLQMNSLRAEDTAVYYCARDRAWGSGDWGQGTLVTVSS VL: not shown
18 | 0.65 nM | 1.48e-05 s⁻¹ | 23000 M⁻¹ s⁻¹ | 96% | 58% | 83% | 22% | 46% | 102% | – | – | CCK-467A (antibody, V domains shown, AlivaMab chimeric IgG, human kappa LC) VH: EVQLVESGGGLVKPGGSLRLSCAASGFTFSSYSMNWVRQAPGKGLEWVSSISSSSSYIYYADSVKGRFTISRDNAKNSLFLQMNSLRAEDTAVYYCARGGSFPYNWFDPWGQGTLVTVSS VL: not shown
19 | – | – | – | – | – | – | – | – | – | binds | binds | CCL-247A (antibody, V domains shown, AlivaMab chimeric IgG, human lambda LC) VH: QVQLQESGPGLVKPSETLSLTCTVSDGSISSYYWSWIRQPAGKGLEWIGRIYTSGSTNYNPSLKSRVTMSVDTSKNQFSLKLTSVTAADTAVYYCARERITSFFDPWGQGTLVTVSS VL: not shown
20 | – | – | – | – | – | – | – | – | – | binds | binds | CCL-204A (antibody, V domains shown, AlivaMab chimeric IgG, human lambda LC) VH: QVQLQESGPGLVKPSETLSLTCTISSGSISSYYWSWIRQPAGKGLEWIGRIYTSGSTNYHPSLKSRVTMSVDTSKNHFSLKLTSVTAADTAVYYCARERLTGFFDYWGQGTLVTVSS VL: not shown
